Experimental findings from patent US20220162310A1 (GREEN CROSS, published 2022) are described below.

Residue numbers refer to the chain shown, from its start. Like-named read-outs stand apart in the source and are kept apart here.

In experiment [1] the target is T1, human TIGIT-Fc antigen (human, UniProt Q495A1 22-141).
T1 construct: not shown: Fc part
T1 chain: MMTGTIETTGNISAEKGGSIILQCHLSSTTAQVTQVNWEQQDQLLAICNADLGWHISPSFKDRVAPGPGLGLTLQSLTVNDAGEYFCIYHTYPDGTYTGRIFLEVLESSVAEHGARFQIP
In words: ELISA, IgG titrated on plate-coated human TIGIT-Fc.

Experiment [2] deals with T2, TIGIT on the TIGIT-overexpressing Jurkat cell line (Jurkat-TIGIT) (Homo sapiens (Human), UniProt Q495A1 22-244).
T2 construct: Jurkat E6.1 cells transfected with 'TIGIT cDNA'; also called TIGIT expressed on the cell surface
T2 sequence: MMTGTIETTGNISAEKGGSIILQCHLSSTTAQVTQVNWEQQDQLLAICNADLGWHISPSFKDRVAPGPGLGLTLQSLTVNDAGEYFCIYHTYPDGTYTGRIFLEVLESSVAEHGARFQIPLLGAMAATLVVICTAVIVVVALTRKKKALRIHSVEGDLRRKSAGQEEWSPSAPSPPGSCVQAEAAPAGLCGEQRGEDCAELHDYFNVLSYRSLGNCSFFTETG
The experiment can be described thus: flow cytometry on Jurkat-TIGIT cells, antibody 25 to 0.00032 ug/ml, PE goat anti-human Fab'2, MFI.
Procedure: The cells were resuspended in FACS buffer so that the number of cells was 3×10⁶ cells/ml, and 100 μl of the suspension was added to each well of a U-bottom 96-well plate. Then, the cells and culture solution of each well were recovered and centrifuged at 1,500 rpm, and then the supernatant was discarded. […] This series of processes was repeated twice. Phycoerythrin (hereinafter, referred to as “PE”)-conjugated goat anti-human Fab′2 (Sigma; Cat. #P8047) was diluted in FACS buffer at a volume ratio of 1:500, 100 μl thereof was added to each well, and the reaction was allowed to proceed in the dark at 4° C. for 30 minutes. The cells reacted with PE were recovered, resuspended in FACS buffer, and centrifuged at 1,500 rpm, the supernatant was discarded, and the residue was washed. This series of processes was repeated twice. […] The cells reacted with the fixation buffer were recovered, resuspended in FACS buffer, and centrifuged at 1,500 rpm, the supernatant was discarded, and the residue was washed. This series of processes was repeated twice. The washed cells were resuspended in 200 μl of FACS buffer, and then the median fluorescence intensity (MFI) of PE with which the cells were labeled was compared using a FACS LSR-Fortessa instrument. All FACS analysis was performed using FlowJo software.

The target of experiment [3] is T3, human TIGIT-His antigen (human, UniProt Q495A1 22-141).
T3 construct: not shown: His tag
T3 chain: T1 chain
The experiment can be described thus: Octet (BLI), human TIGIT-HIS on penta-His sensor, antibody in solution.

Experiment [4] deals with T2, TIGIT on the TIGIT-overexpressing …. The experiment can be described thus: competition in flow cytometry: Jurkat-TIGIT cells preloaded with PVR-Fc, then antibody; PVR left on the cells detected with anti-PVR-PE, MFI falls with the antibody concentration; the sheet calls the half-maximal value EC50.
Procedure: The TIGIT-overexpressing cell line (Jurkat-TIGIT) was resuspended in DPBS supplemented with 2% (v/v) FBS (hereinafter, FACS buffer), centrifuged at 1,500 rpm, and resuspended in FACS buffer so that the number of cells was 3×10⁶ cells/ml, and 100 μl of the suspension was added to each well of a U-bottom 96-well plate. Then, the cells and culture solution of each well were recovered and centrifuged at 1,500 rpm, and then the supernatant was discarded.
This series of processes was repeated twice. […] This series of processes was repeated twice. […] This series of processes was repeated twice. […] The cells reacted with the fixation buffer were recovered, resuspended in FACS buffer, and centrifuged at 1,500 rpm, the supernatant was discarded, and the residue was washed. This series of processes was repeated twice. The washed cells were resuspended in 200 μl of FACS buffer. Then, the median fluorescence intensity (MFI) of PE with which the cells were labeled was compared using a FACS LSR-Fortessa instrument. All FACS analysis was performed using FlowJo software.
Experiment [5] has as its target T1, human TIGIT-Fc antigen. In words: ELISA, IgG titrated on plate-coated human TIGIT-Fc.
Procedure: 50 μl of the human TIGIT-Fc antigen was added at a concentration of 3 μg/ml to an ELISA plate, incubated at 4° C. overnight, and then blocked with 1% BSA in PBS at room temperature for 2 hours. […] The result was washed 3 times with PBST (0.05% Tween 20 in PBS), and 50 μl of anti-His-HRP was diluted 1/1000 in PBS and then reacted at room temperature for 1 hour. The result was washed 3 times with PBST (0.05% Tween 20 in PBS), and 50 μl of a TMB solution was added thereto. The result was allowed to react at room temperature for 5 minutes, 50 μl of a TMB stop solution was added thereto, and the absorbance was measured at 450 nm in an ELISA leader.
The target of experiment [6] is T4, TIGIT on thaw-and-use TIGIT effector cells (TIGIT/CD155 blockade bioassay kit, Promega J2305) (UniProt Q495A1 22-244, limits assumed).
T4 sequence (looked up): T2 sequence with A82T
The experiment can be described thus: cell-based or functional assay.

In experiment [7] the target is T5, mouse TIGIT on transfected HEK293 cells (mouse, UniProt P86176 29-249).
T5 construct: whole, on cells; GFP-expressing cells were gated; also called TIGIT of mice
T5 sequence (looked up): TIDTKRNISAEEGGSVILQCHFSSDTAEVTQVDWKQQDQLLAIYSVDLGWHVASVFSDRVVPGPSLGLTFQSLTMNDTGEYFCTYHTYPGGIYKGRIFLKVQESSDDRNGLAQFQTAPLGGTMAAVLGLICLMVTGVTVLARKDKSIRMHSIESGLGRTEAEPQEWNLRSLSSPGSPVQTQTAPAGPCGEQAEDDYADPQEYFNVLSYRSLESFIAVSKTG
The experiment can be described thus: flow cytometry on HEK293 cells transfected with mouse TIGIT.
Procedure: The result was washed once with PBS, and then the cells were resuspended in FACS buffer to a concentration of 5×10⁵ cells/100 μl. 1 μl of a human Fc block solution was added to each sample and reacted at 4° C. for 10 minutes. […] The result was centrifuged in 200 μl of FACS buffer at 1,200 rpm for 5 minutes to remove the supernatant. The cells were resuspended in 300 μl of fixation buffer. The cells expressing GFP were screened using a FACS LSR-Fortessa instrument, and TIGIT candidate antibodies were identified using a PE fluorescence channel and analyzed using FlowJo software.

For experiment [8], the target named is T3, human TIGIT-His antigen. In words: SPR (Biacore), antibody (1G8 IgG4) captured on an anti-protein A CM5 chip, TIGIT-HIS as analyte in 1/2 serial dilution, contact 120 s, dissociation 600 s.
Procedure: (§1) 10 μg/ml of anti-protein A was prepared by diluting the same in an acetate 4.0 buffer. 100 nM NHS, 400 mM EDC and 1 M ethanolamine were prepared. The sensor chip used herein was a CM5. The contact time was set at 300s (5 min), the flow rate was set at 5 μg/ml, and the immobilization level was set at 2,500 RU. After performing running, whether the RU reached the target level was monitored in the system control window.
(§2) When running was completed, ka, kd, and KD were obtained by fitting using evaluation software.
The target of experiment [9] is T4, TIGIT on thaw-and-use TIGIT effector …. The experiment can be described thus: cell-based or functional assay. This is another data set of the same source.
In experiment [10] the target is T3, human TIGIT-His antigen. In words: SPR (Biacore), antibody captured on an anti-protein A CM5 chip, TIGIT-HIS as analyte in 1/2 serial dilution, contact 120 s, dissociation 600 s.
Procedure: as §1, §2
The target in experiment [11] is T3, human TIGIT-His antigen. The experiment can be described thus: SPR (Biacore), antibody (WIN-1B6 IgG4) captured on an anti-protein A CM5 chip, TIGIT-HIS as analyte in 1/2 serial dilution, contact 120 s, dissociation 600 s.
Procedure: as §1, §2

B1: 1E8 (IgG-type anti-TIGIT antibody) (antibody, V domains shown)
VH: QVQLVQSGTEVKKPGASVKVSCKASGYTFSSYAITWVRQAPGQGLEWMGWISAYNGNTNYAQKLQGRVTMTTDTSTSTAYMELRSLRSDDTAVYYCARVDFWSGYNYFDYWGQGTLVTVSS
VL: DIQMTQSPSSLSASVGDRVTITCRASQGISNYLAWYQQKPGKVPKVLIYAASTLQSGVPSRFSGSGSGTDFTLTISSLQPEDVATYYCQKSNSAPLTFGGGTKVEIKR
notes: section 4.2 is headed 'Conversion to IgG4-Type Anti-TIGIT Antibodies'
As to B1, the EC50 was 1.73 nM with human TIGIT-Fc antigen [1], 0.021 µg/mL in [2], 0.102 µg/mL in [4] and roughly 1 nM with human TIGIT-Fc antigen [5]. In the experiment with human TIGIT-His antigen [3], the Kd is 0.937 nM. In the experiment with human TIGIT-His antigen [3], this molecule had a koff of 0.000528 s⁻¹. In the experiment with human TIGIT-His antigen [3], this molecule registered a kon of 563000 M⁻¹ s⁻¹. The “EC50 of bioluminescence (RLU), TIGIT/CD155 blockade bioassay: TIGIT effector cells with CD155 aAPC/CHO-K1 cells” value (from here on “EC50 … with CD155 aAPC/CHO-K1 cells”) in [6] amounted to 19.1 nM. The binding result in experiment [7] is recorded as “no binding (tested: 1 µg/5×10^5 cells)”.

B2: 1G8 (IgG-type anti-TIGIT antibody) (antibody, V domains shown)
VH: EVQLVQSGAEVKKPGASVKVSCKASGYTFTSYYMHWVRQAPGQGLEWMGIINPSGGSTSYAQKFQGRVTMTRDTSTSTVYMELSSLRSEDTAVYYCASRSGSGWFGALDYWGQGTLVTVSS
VL: not shown
notes: section 4.2 is headed 'Conversion to IgG4-Type Anti-TIGIT Antibodies'; also called TIGIT candidate antibody (1G8)
Consider B2, for which the EC50 in the experiment with human TIGIT-Fc antigen [1] is 1.63 nM; in experiment [2] it was 0.017 µg/mL; in [4], 0.093 µg/mL; with human TIGIT-Fc antigen [5], roughly 1 nM. Also, the Kd with human TIGIT-His antigen [3] amounted to 0.224 nM; with human TIGIT-His antigen [8] it was 0.59 nM. For the same molecule, the koff is 9.32e-05 s⁻¹ in the experiment with human TIGIT-His antigen [3] and 0.001 s⁻¹ in the experiment with human TIGIT-His antigen [8]. Besides, the kon with human TIGIT-His antigen [3] is 415000 M⁻¹ s⁻¹; with human TIGIT-His antigen [8], 1.78e+06 M⁻¹ s⁻¹. In experiment [9], the “EC50 of T-cell activation (luminescence, TIGIT/CD155 blockade bioassay with TIGIT effector cells and CD155 aAPC/CHO-K1 cells)” value came out at 2.1 nM. The binding result in experiment [7] is “no binding (tested: 1 µg/5×10^5 cells)”.

B3: reference antibody (anti-TIGIT) (antibody, V domains shown)
VH: EVQLQQSGPGLVKPSQTLSLTCAISGDSVSSNSAAWNWIRQSPSRGLEWLGKTYYRFKWYSDYAVSVKGRITINPDTSKNQFSLQLNSVTPEDTAVFYCTRESTTYDLLAGPFDYWGQGTLVTVSS
VL: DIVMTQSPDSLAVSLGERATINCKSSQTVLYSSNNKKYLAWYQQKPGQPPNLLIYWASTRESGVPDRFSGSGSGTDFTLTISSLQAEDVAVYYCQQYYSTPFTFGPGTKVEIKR
B3: in the experiment with human TIGIT-His antigen [10], the Kd came out at 0.375 nM, the koff came to 0.000233 s⁻¹ and the kon came out at 622000 M⁻¹ s⁻¹. In experiment [6], the “EC50 … with CD155 aAPC/CHO-K1 cells” value is 6.1 nM.

B4: WIN_1B6 (IgG-type anti-TIGIT antibody) (antibody, V domains shown)
VH: QVQLVQSGAEVKKPGASVKVSCKASGYTFTSYGISWVRQAPGQGLEWMGWISAYNGNTNYAQKLQGRVTMTTDTSTSTAYMELRSLRSDDTAVYYCARAGWEQQLGFDYWGQGTLVTVSS
VL: AIQLTQSPSSLSASVGDRVTISCRASQTIRSYLNWYQQKPGKAPKLLIYAASSLQSGVPLRFSGSGSGTDFTLTISSLQPEDFATYYCQQSYSTLPLTFGGGTKVEIKR
notes: as for B1
As for B4, the EC50 with human TIGIT-Fc antigen [1] is 0.86 nM; in [2], 0.016 µg/mL; in experiment [4], 0.068 µg/mL. Also, the results for the Kd in the experiment with human TIGIT-His antigen [11] and in the experiment with human TIGIT-His antigen [3] were 21.4 nM and 0.443 nM, respectively. Moreover, the results for the koff with human TIGIT-His antigen [11] and with human TIGIT-His antigen [3] were 0.0245 s⁻¹ and 0.000206 s⁻¹, respectively. The kon in the experiment with human TIGIT-His antigen [11] was determined as 1.15e+06 M⁻¹ s⁻¹; in the experiment with human TIGIT-His antigen [3] it was 465000 M⁻¹ s⁻¹. In addition, the “EC50 … with CD155 aAPC/CHO-K1 cells” value in [6] stood at 11.8 nM. The binding result in experiment [7] is “no binding (tested: 1 µg/5×10^5 cells)”.

B5: WIN_1D2 (IgG-type anti-TIGIT antibody) (antibody, V domains shown)
VH: B4 VH
VL: B4 VL with S22T, T28S, R30S, L60S, P96A, L97I, G101Q, K104R, V105L
notes: as for B1
Turning to B5, the EC50 was 1.75 nM with human TIGIT-Fc antigen [1], 0.017 µg/mL in experiment [2], 0.071 µg/mL in experiment [4] and roughly 1 nM in the experiment with human TIGIT-Fc antigen [5]. Besides, in the experiment with human TIGIT-His antigen [3], the Kd worked out at 0.571 nM. In the experiment with human TIGIT-His antigen [3], this molecule showed a koff of 0.000278 s⁻¹. The molecule also returned a kon in the experiment with human TIGIT-His antigen [3] of 488000 M⁻¹ s⁻¹. Further, the “EC50 … with CD155 aAPC/CHO-K1 cells” value in [6] was 27.3 nM. Also, in experiment [7], the binding result is recorded as “no binding (tested: 1 µg/5×10^5 cells)”.

B6: 1F10 (IgG-type anti-TIGIT antibody) (antibody, V domains shown)
VH: EVQLVESGGGLVKPGGSLRISCAASGFTFSNYNMIWVRQAPGKGLEWVSSISSSASYIYYADSVKGRFTISRDNAKNSLYLQMNSLRAEDTAVYYCARDEGSRDSWNNGPYYYSGMDVWGQGTTVTVSS
VL: AIQMTQSPSSLSASVGDRVTITCRASQSISRYLNWYQHKPGKAPKLLIYGASSLQSGVPSRFRGSGSGTDFTLTISSLQPEDFATYYCQQSYTTPGAFTFGGGTKVEIKR
notes: as for B1
For the molecule B6, the EC50 in the experiment with human TIGIT-Fc antigen [1] came out at 5.35 nM. The midpoint of the response in experiment [2], the EC50, lay at 0.08 µg/mL. Besides, in the experiment with human TIGIT-His antigen [3], the Kd came out at 1.32 nM, the koff was 0.000232 s⁻¹ and the kon is 176000 M⁻¹ s⁻¹. For the same molecule, in [4], the midpoint of the response, the EC50, lay at 0.38 µg/mL. Also, the “EC50 … with CD155 aAPC/CHO-K1 cells” value in [6] came to 35.7 nM. In addition, in [7], the binding result is “no binding (tested: 1 µg/5×10^5 cells)”.
